This series addresses T1, Ig/EBP-1 (C/EBP gamma) (mouse, UniProt P53568 1-150).
T1 sequence: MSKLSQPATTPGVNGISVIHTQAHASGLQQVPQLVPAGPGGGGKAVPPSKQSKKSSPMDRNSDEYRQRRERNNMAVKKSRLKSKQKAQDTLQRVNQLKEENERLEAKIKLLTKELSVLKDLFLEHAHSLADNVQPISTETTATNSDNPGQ
As to the kind of experiment: EMSA.

The record followed here is publication PMC2191820.

B1: oligo A wt (dsDNA)
DNA 1: GATCCTGCCTTAGTCAACTTCCCAAGAACAGA
DNA 2: GATCTCTGTTCTTGGGAAGTTGACTAAGGCAG
Turning to B1, the binding result is on record as “binds”.

B2: A mt13 (dsDNA)
DNA 1: GATCCTGCCCCTCGAGGTTCCCAAGAACAGA
DNA 2: GATCTCTGTTCTTGGGAACCTCGAGGGGCAG
Turning to B2, the binding result is given as “no binding”.
